Experiment [1] has as its target T1, purified human α5β1-integrin (Homo sapiens, UniProt P05556+P08648).
T1 construct: purchased Chemicon International (Temecula, Calif.)
Nature of the experiment: Solid phase dot-ELISA: α5β1-integrin binding to immobilized uPAR peptides and suPAR. Conditions: for α5β1-integrin binding to immobilized peptide: peptide immobilized on nitrocellulose, α5β1-integrin 750 ng/ml; for reduction of integrin binding to immobilized uPAR: α5β1-integrin pre-incubated 15 min with 100 fold molar excess of peptide, suPAR 1.5 μg. The protocol:
FIGS. 1A-H show the interaction between α5β1-integrin and immobilized uPAR and uPAR-derived synthetic peptides through solid-phase dot-ELISA. […] Bound integrin was detected with anti-α5 integrin antibody followed by goat anti-rabbit IgG (H+L) HRP conjugated secondary antibody and developed with enhanced chemiluminescence (“ECL”). FIG. 1B is a graph showing that binding of integrin to suPAR is saturable. SuPAR (1.5 μg) was immobilized on nitrocellulose membrane in triplicates, incubated with 0, 0.1, 0.5, 1, 2, and 4 μg/ml of α5β1-integrin and tested for integrin binding as in FIG. 1A. The dots were scanned with NIH Image. Mean and SE are shown. […] Peptides representing regions located in each of the three uPAR-domains were immobilized, incubated with α5β1-integrin, and analyzed as in FIG. 1A. Only peptide 240-248 binds α5β1-integrin. FIG. 1D is a graph showing that peptide 240-248 inhibits integrin binding to suPAR. The α5β1-integrin (750 ng/ml) was pre-incubated for 15 min at room temperature with 100 fold molar excess of 240-248 or 17-24 peptides, or with no peptide (Control) and the mixtures were applied to immobilized suPAR (1.5 μg), 2 dots per mixture, and developed as in FIG. 1A. The dots were scanned with NIH Image. The results (bars) show % of control, the lines show range. FIG. 1E is a graph showing binding of α5β1- and α3β1-integrin to suPAR and peptide 240-248. Dot-ELISA was performed in duplicate as in FIG. 1A, except that purified α5β1-integrin and α3β1-integrin (750 ng/ml) were used. Bound integrins were detected with the appropriate previously titrated antibodies followed by goat anti-rabbit IgG (H+L) HRP conjugated secondary antibody and detection with ECL. The graph represents the mean and range of two values: α5β1-integrin binding to peptide 240-248 (▪) or SuPAR (▴); α3β1-integrin binding to peptide 240-248 ([…]) and SuPAR (x). […] Peptide 240-248 (domain III), 17-24 (domain I), and the S245A mutant of peptide 240-248 were immobilized and tested for integrin binding as in FIG. 1A. FIGS. 1G-H show the crystal structure of human uPAR shown as a surface representation. The three individual domains of uPAR in FIG. 1G are indicated as follows: D1 is on the right side, DII is on the top of the model, and Diii is on the left of the model. In FIG. 1H, the order of the domains is inversed. […] The location of the COOH-terminal in uPAR domain III harboring the GPI-anchor is indicated by the arrow (FIG. 1H). FIGS. 1G-H were created by the program PyMol (DeLano Scientific) using the coordinates 1YWH.
FIGS. 2A-B show solid phase dot-ELISA of suPAR. […] Binding was detected as in FIG. 1A and the dots were scanned with NIH Image. Mean of the two-scanned value for each suPAR concentration are shown in the bottom panel. Mutation of residues in the 239-249 sequence reduced the integrin binding by ˜50 to 94%. suPAR^E33A (▪), suPAR^wt (▴), suPAR^R239A (♦), suPAR^H249A (x), suPAR^Q248A (∘), suPAR^M246A ([…]), suPAR^S245A (□).
Synthetic uPAR-derived peptides and mutant proteins were diluted to 0.5, 1, and 2 μg/100 μl of PBS. […] The strips, pinned to the bottom of a plastic box, were washed with TBS with 0.1% Tween 20, overlaid with 500 μl of rabbit anti-integrin α5 polyclonal antibody (1:650) for 1 hr at RT, washed with TBST twice, incubated with goat anti-rabbit IgG (H+L) HRP conjugated secondary antibody (1:2000) for 1 hr, washed 3 times with TBST, and developed with ECL. The dots were scanned with NIH image.

Experiment [2] addresses T2, purified α3β1-integrin (Homo sapiens, UniProt P05556+P26006).
T2 construct: purchased Chemicon International (Temecula, Calif.)
Nature of the experiment: Solid phase dot-ELISA with α3β1-integrin. Particulars: α3β1-integrin 750 ng/ml, increasing concentrations of immobilized suPAR or peptide. It counts as binding. The method, then: FIGS. 1A-H show the interaction between α5β1-integrin and immobilized uPAR and uPAR-derived synthetic peptides through solid-phase dot-ELISA. […] Bound integrin was detected with anti-α5 integrin antibody followed by goat anti-rabbit IgG (H+L) HRP conjugated secondary antibody and developed with enhanced chemiluminescence (“ECL”). FIG. 1B is a graph showing that binding of integrin to suPAR is saturable. SuPAR (1.5 μg) was immobilized on nitrocellulose membrane in triplicates, incubated with 0, 0.1, 0.5, 1, 2, and 4 μg/ml of α5β1-integrin and tested for integrin binding as in FIG. 1A. The dots were scanned with NIH Image. Mean and SE are shown. […] Peptides representing regions located in each of the three uPAR-domains were immobilized, incubated with α5β1-integrin, and analyzed as in FIG. 1A. Only peptide 240-248 binds α5β1-integrin. FIG. 1D is a graph showing that peptide 240-248 inhibits integrin binding to suPAR. The α5β1-integrin (750 ng/ml) was pre-incubated for 15 min at room temperature with 100 fold molar excess of 240-248 or 17-24 peptides, or with no peptide (Control) and the mixtures were applied to immobilized suPAR (1.5 μg), 2 dots per mixture, and developed as in FIG. 1A. […] Bound integrins were detected with the appropriate previously titrated antibodies followed by goat anti-rabbit IgG (H+L) HRP conjugated secondary antibody and detection with ECL. […]
On the technique in general: ELISA stands for enzyme-linked immunosorbent assay.

The record followed here is patent US20100249184A1, “INDUCTION AND/OR MAINTENANCE OF TUMOR DORMANCY BY DISRUPTION OF UROKINASE PLASMINOGEN ACTIVATOR RECEPTOR-INTEGRIN INTERACTION” (MOUNT SINAI SCHOOL OF MEDICINE, priority 2007, published 2010).

“Also recorded” adds a separate entry of the source.

T1 sequence (P08648 42-894 limits assumed): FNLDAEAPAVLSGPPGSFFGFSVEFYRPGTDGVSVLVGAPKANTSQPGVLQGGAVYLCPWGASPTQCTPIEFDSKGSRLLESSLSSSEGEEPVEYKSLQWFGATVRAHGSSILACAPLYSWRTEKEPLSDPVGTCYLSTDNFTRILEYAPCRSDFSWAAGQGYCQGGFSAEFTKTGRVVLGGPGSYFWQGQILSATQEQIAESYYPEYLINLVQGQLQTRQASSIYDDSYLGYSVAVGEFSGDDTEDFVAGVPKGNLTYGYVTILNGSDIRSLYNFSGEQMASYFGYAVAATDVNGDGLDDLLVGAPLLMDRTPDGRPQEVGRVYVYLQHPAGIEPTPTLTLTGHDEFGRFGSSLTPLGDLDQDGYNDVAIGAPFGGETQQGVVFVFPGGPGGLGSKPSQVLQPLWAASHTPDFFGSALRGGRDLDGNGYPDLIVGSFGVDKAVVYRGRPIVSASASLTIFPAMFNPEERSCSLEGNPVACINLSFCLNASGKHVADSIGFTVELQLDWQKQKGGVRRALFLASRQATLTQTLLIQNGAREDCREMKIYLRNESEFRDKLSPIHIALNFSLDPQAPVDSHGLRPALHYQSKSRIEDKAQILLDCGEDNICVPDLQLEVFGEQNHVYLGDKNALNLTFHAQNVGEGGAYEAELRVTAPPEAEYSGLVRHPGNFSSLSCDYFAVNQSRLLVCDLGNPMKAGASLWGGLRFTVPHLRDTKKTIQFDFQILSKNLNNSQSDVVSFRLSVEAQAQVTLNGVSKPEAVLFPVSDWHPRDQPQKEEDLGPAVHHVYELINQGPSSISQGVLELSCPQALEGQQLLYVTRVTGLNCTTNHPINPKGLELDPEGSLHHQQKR
T1 sequence (P08648 895-1049 limits assumed): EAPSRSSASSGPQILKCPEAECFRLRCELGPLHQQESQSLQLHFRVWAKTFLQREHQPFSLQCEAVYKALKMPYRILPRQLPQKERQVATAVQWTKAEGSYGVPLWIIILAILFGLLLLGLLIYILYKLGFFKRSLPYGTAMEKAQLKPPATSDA
T1 sequence (P05556 21-798): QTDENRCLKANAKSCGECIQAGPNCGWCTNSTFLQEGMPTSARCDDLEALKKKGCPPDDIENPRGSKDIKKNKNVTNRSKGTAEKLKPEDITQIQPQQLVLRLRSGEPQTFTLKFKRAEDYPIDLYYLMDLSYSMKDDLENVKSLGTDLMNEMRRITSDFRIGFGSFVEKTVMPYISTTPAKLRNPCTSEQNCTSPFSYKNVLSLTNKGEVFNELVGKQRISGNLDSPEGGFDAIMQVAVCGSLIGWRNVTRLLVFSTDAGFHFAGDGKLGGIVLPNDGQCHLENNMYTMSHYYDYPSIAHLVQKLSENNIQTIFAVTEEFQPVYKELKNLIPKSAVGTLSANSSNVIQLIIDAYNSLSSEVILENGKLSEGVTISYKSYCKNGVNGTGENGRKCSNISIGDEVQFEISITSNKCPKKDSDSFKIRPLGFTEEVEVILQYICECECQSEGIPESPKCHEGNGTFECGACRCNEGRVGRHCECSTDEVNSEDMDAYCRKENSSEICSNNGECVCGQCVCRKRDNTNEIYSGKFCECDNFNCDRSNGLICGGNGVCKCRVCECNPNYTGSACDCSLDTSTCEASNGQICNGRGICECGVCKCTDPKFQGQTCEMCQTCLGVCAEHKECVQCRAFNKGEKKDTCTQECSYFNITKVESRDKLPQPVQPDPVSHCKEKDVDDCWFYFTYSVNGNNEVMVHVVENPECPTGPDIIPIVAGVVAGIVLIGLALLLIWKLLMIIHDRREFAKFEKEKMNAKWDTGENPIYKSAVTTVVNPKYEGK
T2 sequence (P26006 33-872 limits assumed): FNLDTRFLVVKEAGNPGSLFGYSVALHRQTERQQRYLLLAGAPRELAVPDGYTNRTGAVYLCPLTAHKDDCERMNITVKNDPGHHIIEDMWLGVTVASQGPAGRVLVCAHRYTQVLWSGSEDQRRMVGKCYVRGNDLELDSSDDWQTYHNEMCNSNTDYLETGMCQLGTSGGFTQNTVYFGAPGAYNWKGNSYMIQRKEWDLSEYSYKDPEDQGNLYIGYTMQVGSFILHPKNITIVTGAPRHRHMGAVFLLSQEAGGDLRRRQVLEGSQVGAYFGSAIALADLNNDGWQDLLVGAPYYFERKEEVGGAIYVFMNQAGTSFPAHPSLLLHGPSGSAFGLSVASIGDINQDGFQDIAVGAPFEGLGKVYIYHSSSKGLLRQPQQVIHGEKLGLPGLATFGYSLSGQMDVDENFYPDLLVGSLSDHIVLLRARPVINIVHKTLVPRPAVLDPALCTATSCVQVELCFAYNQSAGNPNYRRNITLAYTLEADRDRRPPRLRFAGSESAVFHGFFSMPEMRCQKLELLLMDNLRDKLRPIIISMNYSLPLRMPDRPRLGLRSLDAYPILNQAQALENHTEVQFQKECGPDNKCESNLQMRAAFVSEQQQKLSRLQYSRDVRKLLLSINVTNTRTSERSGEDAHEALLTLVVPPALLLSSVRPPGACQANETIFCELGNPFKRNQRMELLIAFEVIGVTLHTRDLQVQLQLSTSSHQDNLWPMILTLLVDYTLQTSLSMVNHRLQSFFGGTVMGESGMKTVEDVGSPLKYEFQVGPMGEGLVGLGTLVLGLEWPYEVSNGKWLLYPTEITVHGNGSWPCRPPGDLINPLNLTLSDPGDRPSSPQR
T2 sequence (P26006 873-1051 limits assumed): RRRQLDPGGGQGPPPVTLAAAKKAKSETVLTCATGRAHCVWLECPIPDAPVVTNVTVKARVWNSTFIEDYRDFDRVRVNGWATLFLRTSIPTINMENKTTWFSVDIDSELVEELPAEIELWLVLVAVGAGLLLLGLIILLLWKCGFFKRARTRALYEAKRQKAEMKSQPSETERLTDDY
T2 sequence (P05556 21-798): as the sequence (P05556 21-798) above

Consider “peptide 17-24: synthetic uPAR-derived peptide, domain I amino acid 17-24: CALGQDLC (SEQ ID NO:5); negative control [reference compound]”, for which, in experiment [1], the “α5β1-integrin binding to immobilized peptide” value is on record as “no binding” and the “reduction of integrin binding to immobilized uPAR” value is recorded as “negligible effect”.

For “peptide 240-248: synthetic uPAR-derived peptide, domain III residues 240-248: GCATASMCQ (SEQ ID NO:9)”, in experiment [1], the “α5β1-integrin binding to immobilized peptide” value is “bound α5β1-integrin in a dose-dependent fashion” and the “reduction of integrin binding to immobilized uPAR” value is recorded as “more than 70%”. Moreover, the “α3β1-integrin binding compared to α5β1-integrin” value in experiment [2] is “dots of much lesser intensity; also recorded: bound only weakly”.
